Results: article doi:10.1101/2020.06.26.173310 (bioRxiv, 2020)
Like-named read-outs stand apart in the source and are kept apart here.

Assays:
SEC [1] = biological target: the molecule itself; experiment: SEC
SEC [2] = biological target: the molecule itself; experiment: SEC; remark: listed apart in the source

B1: bacteriophytochrome from Deinococcus radiodurans (DrBphP) (natural protein, Deinococcus radiodurans strain R1, UniProt Q9RZA4 1-755, looked up)
chain: MSRDPLPFFPPLYLGGPEITTENCEREPIHIPGSIQPHGALLTADGHSGEVLQMSLNAATFLGQEPTVLRGQTLAALLPEQWPALQAALPPGCPDALQYRATLDWPAAGHLSLTVHRVGELLILEFEPTEAWDSTGPHALRNAMFALESAPNLRALAEVATQTVRELTGFDRVMLYKFAPDATGEVIAEARREGLHAFLGHRFPASDIPAQARALYTRHLLRLTADTRAAAVPLDPVLNPQTNAPTPLGGAVLRATSPMHMQYLRNMGVGSSLSVSVVVGGQLWGLIACHHQTPYVLPPDLRTTLEYLGRLLSLQVQVKEAADVAAFRQSLREHHARVALAAAHSLSPHDTLSDPALDLLGLMRAGGLILRFEGRWQTLGEVPPAPAVDALLAWLETQPGALVQTDALGQLWPAGADLAPSAAGLLAISVGEGWSECLVWLRPELRLEVAWGGATPDQAKDDLGPRHSFDTYLEEKRGYAEPWHPGEIEEAQDLRDTLTGALGERLSVIRDLNRALTQSNAEWRQYGFVISHHMQEPVRLISQFAELLTRQPRAQDGSPDSPQTERITGFLLRETSRLRSLTQDLHTYTALLSAPPPVRRPTPLGRVVDDVLQDLEPRIADTGASIEVAPELPVIAADAGLLRDLLLHLIGNALTFGGPEPRIAVRTERQGAGWSIAVSDQGAGIAPEYQERIFLLFQRLGSLDEALGNGLGLPLCRKIAELHGGTLTVESAPGEGSTFRCWLPDAGPLPGAADA
modifications: biliverdin IXα chromophore, thioether linkage to the conserved cysteine within the PAS domain
SEC [1]
  stoichiometry N: 2

B2: response regulator from Agrobacterium fabrum (AtRR) (natural protein, Agrobacterium fabrum strain C58)
chain: MPELRPILLVEDNPRDLELTLTALEKCQLANEVVVARDGTEALDYLNVTGSHHNRPGGDPAVVLLDLKLPKVDGLEVLQTVKGSDHLRHIPVVMLTSSREEQDLVKSYELGVNAFVVKPVEFNQFFKAIQDLGVFWALLNE
SEC [2]
  stoichiometry N: 2
